Experimental data: paper doi:10.1101/2023.07.25.550441 (bioRxiv, 2023)

Biological target: Homo sapiens ubiquitin (human, UniProt P0CG48 1-76)
Experiment: SPR

- Kd: 37.9 mM
B1: S. cerevisiae UEV (domain or fragment)
chain: AVVNWLFKVIQPIYNDGRTTFHDSLALLDNFHSLRPRTRVFTHSDGTPQLLLSIYGTISTGEDGSSPHSIPVIMWVPSMYPVKPPFISINLENFDMNTISSSLPIQEYIDSNGWIALPILHCWDPAAMNLIMVVQELMSLLHEPPQDQAP
